Data: US20240132595A1

What was measured:
[1] = biological target: canine MHC Class I DLA-12 antigen (canine (Canis lupus familiaris)); experiment: flow cytometry on cells of CLBL-1 xenograft tumours (PBS group) [B]
[2] = biological target: canine MHC Class I DLA-12 antigen (canine (Canis lupus familiaris)); experiment: flow cytometry on canine PBMCs [E]

Row | Binder | FL1-H (percent of cells in the positive gate) [1] [%] | FITC-H subset (percent of cells in the positive gate) [2] [%] | FITC-A (percent of cells in the positive gate) [1] [%]
1 | cLy-m10C5 (antibody, V domains shown) VH: EVQLQQSGPELVKPGASVKISCKASGYTFTDYNMHWVKQSHGKSLEWIGYIYPYNGGTDYNQKFKSKATLTVDNSSSTAYMELRSLTSDDSTVYYCARGGLVGAMDYWGQGTSVTVSS VL: DIQMTQSPASLSASVGETVTITCRASGNIHNSLAWYQQKQGKSPQLLVYNAKTLPDGVPSRFSGSGSGTQYSLKINSLQPEDFGSYYCQHFWSIPWTFGGGTKLEIK | 89.4 | 59.4 | 
2 | cLy-c10C5 (antibody, V domains shown) VH: EVQLQQSGPELVKPGASVKISCKASGYTFTDYNMHWVKQSHGKSLEWIGYIYPYNGGTDYNQKFKSKATLTVDNSSSTAYMELRSLTSDDSTVYYCARGGLVGAMDYWGQGTSVTVSS VL: DIQMTQSPASLSASVGETVTITCRASGNIHNSLAWYQQKQGKSPQLLVYNAKTLPDGVPSRFSGSGSGTQYSLKINSLQPEDFGSYYCQHFWSIPWTFGGGTKLEIK |  |  | 98.7
